This note sets out measurements from paper PMC4255732, “Structural and functional consequences of removing the N-terminal domain from the magnesium chelatase ChlH subunit of Thermosynechococcus elongatus” (Biochemical Journal, 2014).

The target in one experiment is T1, MgCH (WT ChlH–I–D) (Thermosynechococcus vestitus, UniProt Q8DM52).
T1 construct: with Magnesium-chelatase subunit ChlI; Magnesium-chelatase subunit ChlD
Description: continuous fluorescence assay of MgDIX formation at […] nm. The experiment is classed as biochemical. To be noted: 8 μM DIX, 5 mM ATP, 15 mM MgCl2, 50 mM Mops/KOH pH 7.7, 45 °C, without Gun4.

The next experiment concerns the target T2, ΔN159ChlH (Thermosynechococcus vestitus, UniProt Q8DM52).
T2 construct: gene chlH; N-terminal head domain and linker (159 residues) deleted, starts at Met160; His6-tagged (pET9aHis6); E. coli; about 130 kDa
Put plainly: tryptophan fluorescence quenching. The experiment is classed as binding.

Experiment [1] deals with magnesium chelatase ChlH subunit of Thermosynechococcus elongatus, wild type (Thermosynechococcus elongatus).
For experiment [2], the target named is ΔN159ChlH, N-terminally truncated ChlH subunit of Thermosynechococcus elongatus (Thermosynechococcus elongatus).
The target in experiment [3] is magnesium chelatase ChlH subunit of Thermosynechococcus elongatus, wild type (Thermosynechococcus elongatus). Put plainly: FRET or BRET; 0.1 μM ChlH (WT or ΔN159) labelled with Atto 488, titrated with Gun4 labelled with Alexa Fluor 532; quenching of emission at 524 nm; 50 mM Tricine/NaOH, 0.3 M glycerol, 200 mM NaCl, pH 7.7 (methods; the legend says 7.9), 45°C; apparent Kd from eqn (1).

Experiment [4] has as its target ΔN159ChlH, N-terminally truncated ChlH subunit of Thermosynechococcus elongatus (Thermosynechococcus elongatus). The description is as above.

T1 sequence (Q8DM52 1-1326): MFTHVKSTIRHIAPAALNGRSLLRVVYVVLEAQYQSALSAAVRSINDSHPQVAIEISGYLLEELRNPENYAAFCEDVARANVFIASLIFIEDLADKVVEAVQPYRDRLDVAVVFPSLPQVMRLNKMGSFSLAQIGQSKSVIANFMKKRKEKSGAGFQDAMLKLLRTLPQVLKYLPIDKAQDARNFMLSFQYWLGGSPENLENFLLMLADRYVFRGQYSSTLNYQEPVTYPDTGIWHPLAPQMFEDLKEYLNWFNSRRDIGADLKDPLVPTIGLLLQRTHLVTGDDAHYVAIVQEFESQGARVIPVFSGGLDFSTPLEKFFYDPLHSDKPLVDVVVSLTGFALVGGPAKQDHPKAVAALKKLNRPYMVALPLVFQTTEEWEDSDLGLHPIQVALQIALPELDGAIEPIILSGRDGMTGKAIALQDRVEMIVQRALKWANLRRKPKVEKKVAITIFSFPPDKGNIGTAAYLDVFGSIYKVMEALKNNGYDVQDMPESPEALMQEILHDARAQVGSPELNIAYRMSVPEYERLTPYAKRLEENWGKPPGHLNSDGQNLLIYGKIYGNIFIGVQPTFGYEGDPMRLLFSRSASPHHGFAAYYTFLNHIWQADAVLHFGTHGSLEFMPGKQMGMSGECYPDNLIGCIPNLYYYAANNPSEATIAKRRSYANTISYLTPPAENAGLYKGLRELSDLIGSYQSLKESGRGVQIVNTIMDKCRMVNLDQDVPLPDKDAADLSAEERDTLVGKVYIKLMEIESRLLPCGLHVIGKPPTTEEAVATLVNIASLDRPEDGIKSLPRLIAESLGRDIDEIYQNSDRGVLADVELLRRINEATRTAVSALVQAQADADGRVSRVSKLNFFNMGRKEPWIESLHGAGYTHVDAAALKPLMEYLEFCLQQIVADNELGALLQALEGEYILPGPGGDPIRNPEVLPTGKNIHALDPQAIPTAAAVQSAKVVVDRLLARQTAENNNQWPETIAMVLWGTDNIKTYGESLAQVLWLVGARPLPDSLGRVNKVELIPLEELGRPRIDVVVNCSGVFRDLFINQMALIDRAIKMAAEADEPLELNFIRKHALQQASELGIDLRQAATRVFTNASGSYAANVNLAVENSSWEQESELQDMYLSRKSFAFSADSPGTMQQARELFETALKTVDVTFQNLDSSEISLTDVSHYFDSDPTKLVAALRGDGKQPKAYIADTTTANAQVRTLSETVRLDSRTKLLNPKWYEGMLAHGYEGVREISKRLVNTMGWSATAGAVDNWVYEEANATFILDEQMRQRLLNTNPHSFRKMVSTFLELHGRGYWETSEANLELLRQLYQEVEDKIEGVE
T1 sequence (Q8DIS0 13-367 partner): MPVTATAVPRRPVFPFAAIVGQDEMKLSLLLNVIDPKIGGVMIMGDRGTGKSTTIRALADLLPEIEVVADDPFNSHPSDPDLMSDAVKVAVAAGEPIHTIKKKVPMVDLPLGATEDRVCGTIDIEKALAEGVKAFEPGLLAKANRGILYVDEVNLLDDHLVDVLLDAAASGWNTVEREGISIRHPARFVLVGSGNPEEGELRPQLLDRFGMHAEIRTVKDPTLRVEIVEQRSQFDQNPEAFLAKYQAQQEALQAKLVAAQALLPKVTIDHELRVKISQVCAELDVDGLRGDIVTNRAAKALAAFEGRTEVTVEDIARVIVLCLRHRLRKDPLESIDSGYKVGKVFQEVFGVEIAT
T1 sequence (Q8DJ18 1-668 partner): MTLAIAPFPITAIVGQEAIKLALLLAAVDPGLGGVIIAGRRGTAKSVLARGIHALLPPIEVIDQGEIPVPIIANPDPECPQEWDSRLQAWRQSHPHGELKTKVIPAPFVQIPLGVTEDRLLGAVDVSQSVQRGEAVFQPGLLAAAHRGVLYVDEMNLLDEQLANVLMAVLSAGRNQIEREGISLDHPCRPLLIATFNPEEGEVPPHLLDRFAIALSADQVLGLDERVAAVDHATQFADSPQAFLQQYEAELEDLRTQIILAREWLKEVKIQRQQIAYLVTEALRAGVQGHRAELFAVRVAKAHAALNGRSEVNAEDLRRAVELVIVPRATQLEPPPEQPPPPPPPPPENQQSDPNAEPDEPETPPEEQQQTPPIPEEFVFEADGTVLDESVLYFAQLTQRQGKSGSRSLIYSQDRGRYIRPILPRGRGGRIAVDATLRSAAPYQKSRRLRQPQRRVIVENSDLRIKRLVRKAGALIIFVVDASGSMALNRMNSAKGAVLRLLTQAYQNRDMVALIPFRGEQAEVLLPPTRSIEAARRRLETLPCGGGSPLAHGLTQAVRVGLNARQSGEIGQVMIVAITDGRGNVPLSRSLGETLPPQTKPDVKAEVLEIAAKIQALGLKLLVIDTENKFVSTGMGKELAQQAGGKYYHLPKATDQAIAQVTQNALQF
T2 sequence (Q8DM52 entry or part of it, stated change not applied): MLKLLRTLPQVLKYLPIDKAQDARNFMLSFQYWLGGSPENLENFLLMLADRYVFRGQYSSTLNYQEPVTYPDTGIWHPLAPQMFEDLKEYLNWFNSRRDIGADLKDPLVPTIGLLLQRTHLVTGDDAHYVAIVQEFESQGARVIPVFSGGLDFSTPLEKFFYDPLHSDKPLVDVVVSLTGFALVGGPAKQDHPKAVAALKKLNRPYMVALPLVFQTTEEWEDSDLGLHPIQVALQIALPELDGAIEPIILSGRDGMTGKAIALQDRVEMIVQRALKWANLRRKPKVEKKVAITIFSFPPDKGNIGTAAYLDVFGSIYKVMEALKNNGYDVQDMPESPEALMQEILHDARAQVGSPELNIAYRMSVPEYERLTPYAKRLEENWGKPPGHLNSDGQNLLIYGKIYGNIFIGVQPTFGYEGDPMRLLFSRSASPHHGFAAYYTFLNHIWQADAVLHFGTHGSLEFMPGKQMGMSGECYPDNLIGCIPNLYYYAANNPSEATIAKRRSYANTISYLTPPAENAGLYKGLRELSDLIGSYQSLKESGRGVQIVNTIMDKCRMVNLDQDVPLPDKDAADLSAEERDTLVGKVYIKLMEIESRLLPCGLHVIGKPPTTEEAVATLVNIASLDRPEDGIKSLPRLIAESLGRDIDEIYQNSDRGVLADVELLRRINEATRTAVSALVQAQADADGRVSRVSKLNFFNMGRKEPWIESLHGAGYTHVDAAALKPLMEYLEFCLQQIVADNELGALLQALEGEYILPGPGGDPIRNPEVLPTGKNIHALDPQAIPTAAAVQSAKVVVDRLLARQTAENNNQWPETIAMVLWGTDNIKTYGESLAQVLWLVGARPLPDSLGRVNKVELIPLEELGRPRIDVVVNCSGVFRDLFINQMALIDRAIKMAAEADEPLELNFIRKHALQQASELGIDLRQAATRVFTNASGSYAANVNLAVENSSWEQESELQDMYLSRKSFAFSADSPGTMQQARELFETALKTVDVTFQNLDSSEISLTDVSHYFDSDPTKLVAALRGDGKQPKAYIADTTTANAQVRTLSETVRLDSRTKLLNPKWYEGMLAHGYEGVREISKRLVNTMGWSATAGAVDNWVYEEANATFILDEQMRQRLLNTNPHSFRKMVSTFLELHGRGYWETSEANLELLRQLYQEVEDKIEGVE

Take `CC1=C(CCC(=O)O)c2cc3nc(cc4[nH]c(cc4C)cc4[nH]c(cc1n2)cc4C)C(C)=C3CCC(=O)O` [DIX]: at MgCH (WT ChlH–I–D), the “continuous fluorescence assay of MgDIX formation at 580 nm” value is recorded as “assayed for in vitro MgCH activity by continuously monitoring fluorescence from the MgDIX product”. The Kd on ΔN159ChlH worked out at 1.06 ± 0.09 µM.
In experiment [1], “Gun4 protein of Thermosynechococcus elongatus (natural protein)” displayed a Kapp from steady-state magnesium chelatase rates against [Gun4] (0.1 μM ChlD, 0.2 μM ChlI, 0.4 μM ChlH, 45°C, eqn (2), nd held at 0.4) of 0.39 µM. Besides, the Kapp from steady-state magnesium chelatase rates against [Gun4] (0.1 μM ChlD, 0.2 μM ChlI, 0.4 μM ΔN159ChlH, 45°C, eqn (2), nd held at 0.4) in experiment [2] came to 0.05 µM. Further, the Kd in experiment [3] is 0.009 µM; in experiment [4] it was 0.016 µM.
